Results from IntAct's records for PubMed 19400808.

B1: Nitrogen regulatory protein (Escherichia coli (strain K12)), P69829 (parent)
chain: MTNNDTTLQLSSVLNRECTRSRVHCQSKKRALEIISELAAKQLSLPPQVVFEAILTREKMGSTGIGNGIAIPHGKLEEDTLRAVGVFVQLETPIAFDAIDNQPVDLLFALLVPADQTKTHLHTLSLVAKRLADKTICRRLRAAQSDEELYQIITDTEGTPDEA
partner: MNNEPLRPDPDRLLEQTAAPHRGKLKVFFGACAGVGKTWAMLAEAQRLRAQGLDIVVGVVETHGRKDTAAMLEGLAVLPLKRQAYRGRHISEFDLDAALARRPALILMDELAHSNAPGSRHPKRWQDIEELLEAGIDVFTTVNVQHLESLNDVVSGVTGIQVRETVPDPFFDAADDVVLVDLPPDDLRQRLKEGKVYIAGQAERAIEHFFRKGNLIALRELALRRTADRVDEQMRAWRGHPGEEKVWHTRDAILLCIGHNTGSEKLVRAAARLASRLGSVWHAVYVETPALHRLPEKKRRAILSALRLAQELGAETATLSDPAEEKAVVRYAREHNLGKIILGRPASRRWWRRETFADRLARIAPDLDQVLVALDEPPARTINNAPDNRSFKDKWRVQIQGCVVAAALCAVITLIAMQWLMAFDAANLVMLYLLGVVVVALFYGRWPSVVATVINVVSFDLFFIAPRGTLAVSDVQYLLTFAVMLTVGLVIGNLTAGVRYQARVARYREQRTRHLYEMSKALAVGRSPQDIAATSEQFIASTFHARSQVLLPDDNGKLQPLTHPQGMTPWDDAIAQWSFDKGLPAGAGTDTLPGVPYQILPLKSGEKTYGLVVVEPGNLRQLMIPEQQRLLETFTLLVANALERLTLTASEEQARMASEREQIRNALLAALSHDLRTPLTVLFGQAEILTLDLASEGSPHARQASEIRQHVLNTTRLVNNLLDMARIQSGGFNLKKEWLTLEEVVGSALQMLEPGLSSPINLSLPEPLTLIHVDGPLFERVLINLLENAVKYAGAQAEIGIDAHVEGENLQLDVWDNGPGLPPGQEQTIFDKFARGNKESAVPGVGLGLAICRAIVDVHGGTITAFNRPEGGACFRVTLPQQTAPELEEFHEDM

Variants of: B1
Settings: with kdpd_ecoli kdpD

effect of a mutation on the interaction	Variant
increasing interaction strength	H73A
